In US20030215899A1, “Reversible oxidation of protein tyrosine phosphatases” (CEPTYR, Inc., priority 2002, published 2003):
Entries after “also recorded” stand apart in the source; their conditions may differ.

Assays:
70 kDa PTP (SHP-2) = biological target: T1, 70 kDa PTP (SHP-2) (Rattus norvegicus, UniProt P41499); experiment: modified in-gel PTP assay, growth factor stimulated Rat-1 cells; assay type: cell-based
T1 construct: endogenous in cells; host or cells: Rat-1 fibroblasts
T1 sequence (P41499 1-593): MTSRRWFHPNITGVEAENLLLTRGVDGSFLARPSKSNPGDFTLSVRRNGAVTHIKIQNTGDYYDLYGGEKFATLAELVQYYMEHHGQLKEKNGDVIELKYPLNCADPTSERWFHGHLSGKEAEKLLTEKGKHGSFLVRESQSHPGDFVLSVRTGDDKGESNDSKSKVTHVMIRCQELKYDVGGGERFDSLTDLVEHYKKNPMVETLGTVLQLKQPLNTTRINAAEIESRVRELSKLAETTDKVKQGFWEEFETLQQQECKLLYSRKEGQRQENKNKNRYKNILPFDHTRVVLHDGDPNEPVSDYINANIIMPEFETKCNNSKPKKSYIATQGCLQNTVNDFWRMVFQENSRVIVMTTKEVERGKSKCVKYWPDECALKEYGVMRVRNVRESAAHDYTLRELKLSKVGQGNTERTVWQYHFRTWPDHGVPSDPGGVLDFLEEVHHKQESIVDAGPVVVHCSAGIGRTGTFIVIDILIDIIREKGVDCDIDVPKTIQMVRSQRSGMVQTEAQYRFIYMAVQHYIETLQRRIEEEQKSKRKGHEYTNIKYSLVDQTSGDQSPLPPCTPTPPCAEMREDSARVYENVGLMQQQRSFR
Description: To determine whether ROS stimulated intracellular tyrosine phosphorylation through the oxidation and inhibition of cellular PTPs, a modified in-gel PTP activity assay was devised, as follows: As substrate, poly (4:1) Glu-Tyr (Sigma) was labeled with [γ-^32P]-ATP using the GST-FER fusion PTK, as described previously (Shen et al., 1998 J. Biol. Chem. 273:6474-81). The labeled substrates were used within three weeks to limit the variation of its specific activity from experiment to experiment. The lysis buffer (25 mM CH3COONa, 1% NP-40, 150 mM NaCl, 10% glycerol, pH 5.5) was degassed at 4° C. for overnight, before catalase and superoxide dismutase (both 100 μg/ml), protease inhibitors and 10 mM iodoacetic acid (IAA) were added. Following stimulation, cells were lysed under anaerobic conditions in an argon chamber. Lysates (25 μg) were processed as described herein and an “in-gel” phosphatase assay (Burridge and Nelson, 1995) was conducted using SDS-PAGE gels containing a radioactively-labeled substrate (1.5×10^6 cpm/20 ml gel solution, approximately 2 μM p-Tyr).
Cells were triggered with the appropriate stimulus and harvested under anaerobic conditions in lysis buffer containing IAA. Those PTPs that had not encountered ROS in the cell became irreversibly inactivated by alkylation of their active site Cys with IAA. However, in contrast, any PTPs in which the active site Cys had been oxidized in response to the stimulus were resistant to alkylation. For the “in-gel” phosphatase assay, a 10% SDS-PAGE gel was cast containing a radioactively-labeled substrate. An aliquot of cell lysate was subjected to SDS-PAGE and proteins in the gel were sequentially denatured, then renatured in the presence of reducing reagents. […] The reaction was then terminated by fixing, staining and destaining the gel. Finally the gel was dried and exposed to film. […]
As described above, treatment of Rat-1 cells with H2O2 led to inactivation of multiple PTPs (FIGS. 2-3). […] Lysates of PDGF-stimulated Rat-1 cells were then analyzed using the modified in-gel PTP activity assay described above. […]

MAPK = experiment: anti-phospho-MAPK / anti-MAPK immunoblot; assay type: cell-based, Rat; details: peptide growth factors, Rat-1 cells
Procedure: For immunoprecipitation, cells were rinsed with ice-cold PBS, then lysed in ice-cold 20 mM Hepes (pH 7.5), 1% NP-40, 150 mM NaCl, 10% glycerol, 200 μM […] and protease inhibitors (25 μg/ml of aprotinin and leupeptin). […] The anti-pTyr antibody G104 was described previously (Garton et al., 1997 Oncogene 15, 877-885). Anti-PDGFRββ antibody (Ab-X) was a gift from Dr. Daniel DiMaio at Yale University (Irusta and DiMaio, 1998 EMBO J. 17, 6912-6923). Anti-human G-CSF receptor (G-CSFR) antibody was provided by Dr. Toshio Hirano at Osaka University, Japan (Fukada et al., 1996 Immunity 5, 449-460). Lysate (400 μg) was incubated with 5 μg of antibody conjugated to protein A/G-Sepharose (Amersham Pharmacia, Arlington Heights, Ill.) for 2 hours at 4° C. For immunoblotting, aliquots of total lysates (30 μg per sample) or immunoprecipitates were subjected to SDS-PAGE and transferred to nitrocellulose filters, which were incubated with appropriate primary and secondary antibodies and the specific signals were visualized by the ECL detection system (Amersham Pharmacia).

[1] = system: intracellular ROS in Rat-1 cells; experiment: ROS-induced DCF fluorescence (microscopy, flow cytometry); assay type: cell-based; details: 20 μM CM-H2DCFDA, growth factor 50 ng/ml, 10 mins
Procedure: The effects of H2O2 and t-BHP on inactivation of PTPs and activation of MAPK signaling pathways were next compared in a cellular context. Intracellular ROS were measured using 2′,7′-dichlorofluorescein diacetate (H2DCFDA) and 5-(and-6)-chloromethyl-2′,7′-dichlorodihydrofluorescein diacetate (CM-H2DCFDA) (all fluorescent ROS indicators from Molecular Probes, Eugene, Oreg.) either by fluorescence microscopy, using a Zeiss Axiovert 405M inverted microscope equipped with a fluorescence attachment and digital camera, or by cell sorting, using a FACSCalibur System ([…].), according to the manufacturer's recommendations. […] Images of ROS-induced DCF fluorescence are shown at magnification 400× (FIG. 3B upper panel). Cells (1×10^5) that underwent the same treatment as above were harvested and resuspended in Hanks' solution, then immediately subjected to flow cytometric analysis to measure ROS-induced DCF fluorescence. The basal peak indicates background fluorescence, whereas the rightward shifted peak indicates ROS-induced DCF fluorescence (FIG. 3B, lower panels). […]
Rat-1 cells were incubated with 20 μM CM-H2DCFDA in the dark for 20 mins, then exposed to peptide growth factors (50 ng/ml) for an additional 10 mins. Images of ROS-induced DCF fluorescence are shown at 50× magnification. […]

B1: EGF: peptide growth factor (protein, UniProt P01133 23-1207, looked up)
Pro-epidermal growth factor: PQHWSCPEGTLAGNGNSTCVGPAPFLIFSHGNSIFRIDTEGTNYEQLVVDAGVSVIMDFHYNEKRIYWVDLERQLLQRVFLNGSRQERVCNIEKNVSGMAINWINEEVIWSNQQEGIITVTDMKGNNSHILLSALKYPANVAVDPVERFIFWSSEVAGSLYRADLDGVGVKALLETSEKITAVSLDVLDKRLFWIQYNREGSNSLICSCDYDGGSVHISKHPTQHNLFAMSLFGDRIFYSTWKMKTIWIANKHTGKDMVRINLHSSFVPLGELKVVHPLAQPKAEDDTWEPEQKLCKLRKGNCSSTVCGQDLQSHLCMCAEGYALSRDRKYCEDVNECAFWNHGCTLGCKNTPGSYYCTCPVGFVLLPDGKRCHQLVSCPRNVSECSHDCVLTSEGPLCFCPEGSVLERDGKTCSGCSSPDNGGCSQLCVPLSPVSWECDCFPGYDLQLDEKSCAASGPQPFLLFANSQDIRHMHFDGTDYGTLLSQQMGMVYALDHDPVENKIYFAHTALKWIERANMDGSQRERLIEEGVDVPEGLAVDWIGRRFYWTDRGKSLIGRSDLNGKRSKIITKENISQPRGIAVHPMAKRLFWTDTGINPRIESSSLQGLGRLVIASSDLIWPSGITIDFLTDKLYWCDAKQSVIEMANLDGSKRRRLTQNDVGHPFAVAVFEDYVWFSDWAMPSVMRVNKRTGKDRVRLQGSMLKPSSLVVVHPLAKPGADPCLYQNGGCEHICKKRLGTAWCSCREGFMKASDGKTCLALDGHQLLAGGEVDLKNQVTPLDILSKTRVSEDNITESQHMLVAEIMVSDQDDCAPVGCSMYARCISEGEDATCQCLKGFAGDGKLCSDIDECEMGVPVCPPASSKCINTEGGYVCRCSEGYQGDGIHCLDIDECQLGEHSCGENASCTNTEGGYTCMCAGRLSEPGLICPDSTPPPHLREDDHHYSVRNSDSECPLSHDGYCLHDGVCMYIEALDKYACNCVVGYIGERCQYRDLKWWELRHAGHGQQQKVIVVAVCVVVLVMLLLLSLWGAHYYRTQKLLSKNPKNPYEESSRDVRSRRPADTEDGMSSCPQPWFVVIKEHQDLKNGGQPVAGEDGQAADGSMQPTSWRQEPQLCGMGTEQGCWIPVSSDKGSCPQVMERSFHMPSYGTQTLEGGVEKPHSLLSANPLWQQRALDPPHQMELTQ
modifications: Pro-epidermal growth factor
oxidation and inhibition of SHP-2 (70 kDa PTP (SHP-2); peptide growth factors, lysis with 10 mM IAA): not following exposure of these cells to EGF or FGF; also recorded: not by EGF or FGF | activation of MAPK (MAPK): activated MAPK to a similar extent | production of intracellular ROS [1]: ROS production was not detected

B2: G-CSF: ligand of the G-CSFR/PDGFR chimeric receptors (protein, UniProt P09919 31-207, looked up)
Granulocyte …: TPLGPASSLPQSFLLKCLEQVRKIQGDGAALQEKLVSECATYKLCHPEELVLLGHSLGIPWAPLSSCPSQALQLAGCLSQLHSGLFLYQGLLQALEGISPELGPTLDTLQLDVADFATTIWQQMEELGMAPALQPTQGAMPAFASAFQRRAGGVLVASHLQSFLEVSYRVLRHLAQP
oxidation and inactivation of SHP-2 (70 kDa PTP (SHP-2); Rat-1 cells transfected with WT G-CSFR/PDGFR chimeric receptor): rapid oxidation and inactivation of SHP-2 | oxidation of SHP-2 (70 kDa PTP (SHP-2); Rat-1 cells transfected with Y1009F mutant G-CSFR/PDGFR chimeric receptor): did not induce oxidation of SHP-2
